Experimental data reported in the supplement of paper PMC10567573.

B1: INTS4 (parent)
chain: YSSGEFSSGRKWGDDAPKEEVDTG
B2: CAMK2A (parent)
chain: CIQQILEAVLHCHQMGVVHRDLKP

Variants of: B1
Test: protein stability index of a GFP-peptide fusion (GPS, HEK-293T) (PSI 1-6); higher = more stable
Settings: c terminus: a fixed tail appended
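Further: lentivirally expressed fusions sorted by FACS into six bins by GFP to DsRed ratio, PSI derived from sequencing read proportions per bin multiplied by bin number.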

Variant | protein stability index
YSSGEFSSLRKWGDDAPKEEVDTG | 2.49
YSSGEFSSHRKWGDDAPKEEVDTG | 2.43
YSSGEFSSSRKWGDDAPKEEVDTG | 2.63
YSSGEFSSKRKWGDDAPKEEVDTG | 1.28
YSSGEFSSTRKWGDDAPKEEVDTG | 2.3
YSSGEFSSQRKWGDDAPKEEVDTG | 2.35
YSSGEFSSGRKWGDDCPKEEVDTG | 2.71
YSSGEFSSGRKWGDDAPKEEVDTI | 2.25
YSSGEFSSGRKWGDDAPKEEVDTE | 2.74
YSSGEISSGRKWGDDAPKEEVDTG | 4.67
YSSGEVSSGRKWGDDAPKEEVDTG | 4.99
YSSGEQSSGRKWGDDAPKEEVDTG | 4.96
YSSGEFSSGRKWGDDAIKEEVDTG | 2.44
YSSGEFSSGRKWGDDAAKEEVDTG | 2.84
YSSGEFSSGRKWGDDAMKEEVDTG | 2.39
YSSGEFSSGRKWGDDALKEEVDTG | 2.57
YSSGEFSSGRKWGDDAVKEEVDTG | 2.74
YSSGEFSSGRKWGDDAYKEEVDTG | 1.99
YSSGEFSSGRKWGDDAHKEEVDTG | 1.47
YSSGEFSSGRKWGDDAPIEEVDTG | 2.73
YSSGEFSSGRKWGDDAPKEKVDTG | 1.91
YSSGEFSSGRKWGDDAPKESVDTG | 1.91
YGSGEFSSGRKWGDDAPKEEVDTG | 1.95
YVSGEFSSGRKWGDDAPKEEVDTG | 1.59
YPSGEFSSGRKWGDDAPKEEVDTG | 2.31
YRSGEFSSGRKWGDDAPKEEVDTG | 5.05
YQSGEFSSGRKWGDDAPKEEVDTG | 2.48

Variant | protein stability index
YSSGEFSSGRKWGDDAPKFEVDTG | 2.97
YSSGEFSSGRKWGDDAPKAEVDTG | 2.67
YSSGEFSSGRKWGDDAPKHEVDTG | 2.09
YSSGEFSSGRKWGDDAPKREVDTG | 1.75
YSSVEFSSGRKWGDDAPKEEVDTG | 3.87
YSSKEFSSGRKWGDDAPKEEVDTG | 3.31
YSSREFSSGRKWGDDAPKEEVDTG | 2.22
YSSGEFSSGRKWVDDAPKEEVDTG | 2.47
YSSGEFSSGRKWQDDAPKEEVDTG | 3.38
YSSGEFSSGRKWCDDAPKEEVDTG | 2.65
YSSGEFSSGRKWGDDAPKEEVLTG | 2.27
YSSGEFSSGRKWGDDAPKEEVATG | 2.06
YSSGEFSSGRKWGDDAPKEEVRTG | 2.73
YSSGEFSSGRKWGDDAPKEEVNTG | 2.74
YSSGEFSSGRKWGDDAPKEEVHTG | 2.48
YSSGEFSSGRKWGIDAPKEEVDTG | 1.54
YSSGEFSSGRKWGEDAPKEEVDTG | 2.32
YSSGEFSSGRKWGDDAPKEEWDTG | 1.82
LSSGEFSSGRKWGDDAPKEEVDTG | 5.79
TSSGEFSSGRKWGDDAPKEEVDTG | 5.12
VSSGEFSSGRKWGDDAPKEEVDTG | 5.8
MSSGEFSSGRKWGDDAPKEEVDTG | 5.39
YSSGEFSSGREWGDDAPKEEVDTG | 3.25
YSSGEFSSGRMWGDDAPKEEVDTG | 2.62
YSSGEFSSGRWWGDDAPKEEVDTG | 1.94
YSSGEFSSGRCWGDDAPKEEVDTG | 1.93
YSSGEFSSGRVWGDDAPKEEVDTG | 2.39

Variant | protein stability index
YSSGEFSSGRIWGDDAPKEEVDTG | 1.78
YSSGEFSSGRKSGDDAPKEEVDTG | 4.44
YSSGEFSSGRKVGDDAPKEEVDTG | 3.08
YSSGEFSSGRKRGDDAPKEEVDTG | 2.86
YSSGEFSSGRKGGDDAPKEEVDTG | 3.11
YSMGEFSSGRKWGDDAPKEEVDTG | 3.91
YSPGEFSSGRKWGDDAPKEEVDTG | 4.1
YSSGEFSSGRKWGDCAPKEEVDTG | 2.5
YSSGNFSSGRKWGDDAPKEEVDTG | 3.27
YSSGSFSSGRKWGDDAPKEEVDTG | 3.07
YSSGDFSSGRKWGDDAPKEEVDTG | 3.64
YSSGEFSEGRKWGDDAPKEEVDTG | 3.56
YSSGEFSDGRKWGDDAPKEEVDTG | 3.79
YSSGEFSSGRKWGDDAPKEEVDWG | 2.05
YSSGEFSSGRKWGDDAPKEEVDMG | 1.99
YSSGEFSSGRKWGDDAPKEEVDEG | 2.8
YSSGEFSSGAKWGDDAPKEEVDTG | 2.35
YSSGEFSSGGKWGDDAPKEEVDTG | 2.93
YSSGEFSSGCKWGDDAPKEEVDTG | 2.47
YSSGEFLSGRKWGDDAPKEEVDTG | 2.43
YSSGEFNSGRKWGDDAPKEEVDTG | 3.3
YSSGEFVSGRKWGDDAPKEEVDTG | 2.27
YSSGEFDSGRKWGDDAPKEEVDTG | 3.83
YSSGEFGSGRKWGDDAPKEEVDTG | 2.75
YSSGEFYSGRKWGDDAPKEEVDTG | 2.52

Variants of: B2
Test: as above
Settings: c terminus: a fixed tail appended

Variant | protein stability index
CIQQILEAVLHCHQMNVVHRDLKP | 3.04
CIQQILEAVLHCHQMKVVHRDLKP | 1.11
CIQQILEAVLHCHQMDVVHRDLKP | 2.41
CIQQILEAVLHCHQMQVVHRDLKP | 3.06
CIQQILEAVLHCHQMRVVHRDLKP | 1.6
CIQQILEAVLHCHQQGVVHRDLKP | 1.22
CIQQILEAVLHCHQNGVVHRDLKP | 1.52
CIQQILEAVLHCHQDGVVHRDLKP | 1.8
CIQQILEAVLHCHQVGVVHRDLKP | 2.57
CIQQILEAVLHCHQIGVVHRDLKP | 2.31
CIQQILEAVLHCHQYGVVHRDLKP | 2.85
CGQQILEAVLHCHQMGVVHRDLKP | 1.99
CSQQILEAVLHCHQMGVVHRDLKP | 1.56
CTQQILEAVLHCHQMGVVHRDLKP | 1.79
CQQQILEAVLHCHQMGVVHRDLKP | 1.72
